One experiment addresses mouse CTLA-4 protein (mouse, UniProt P09793 36-161). Description: ELISA. (In general: An ELISA detects its analyte on a solid surface through an enzyme-linked reagent.)
In a further experiment the target is Mouse CTLA4 (mouse, UniProt P09793 36-161). As to the kind of experiment: ELISA.

The text below walks through data of patent US20200283525A1 (published 2020).

As usually defined, the IC50 is the concentration at which inhibition is half-maximal.

B1: 9D9 DMAb original (antibody)
chain 1: EAKLQESGPVLVKPGASVKMSCKASGYTFTDYYMNWVKQSHGKSLEWIGVINPYNGDTSYNQKFKGKATLTVDKSSSTAYMELNSLTSEDSAVYYCARYYGSWFAYWGQGTLITVSTAKTTPPSVYPLAPGCGDTTGSSVTLGCLVKGYFPESVTVTWNSGSLSSSVHTFPALLQSGLYTMSSSVTVPSSTWPSQTVTCSVAHPASSTTVDKKLEPSGPISTINPCPPCKECHKCPAPNLEGGPSVFIFPPNIKDVLMISLTPKVTCVVVDVSEDDPDVQISWFVNNVEVHTAQTQTHREDYNSTIRVVSTLPIQHQDWMSGKEFKCKVNNKDLPSPIERTISKIKGLVRAPQVYILPPPAEQLSRKDVSLTCLVVGFNPGDISVEWTSNGHTEENYKDTAPVLDSDGSYFIYSKLNMKTSKWEKTDSFSCNVRHEGLKNYYLKKTISRSPGK
chain 2: DIVMTQTTLSLPVSLGDQASISCRSSQSIVHSNGNTYLEWYLQKPGQSPKLLIYKVSNRFSGVPDRFSGSGSGTDFTLKISRVEAEDLGVYYCFQGSHVPYTFGGGTKLEIKRADAAPTVSIFPPSSEQLTSGGASVVCFLNNFYPKDINVKWKIDGSERQNGVLNSWTDQDSKDSTYSMSSTLTLTKDEYERHNSYTCEATHKTSTSPIVKSFNRNEC
Take B1: the IC50 with mouse CTLA-4 protein was 0.0434 µg/mL.

B2: 9D9 DMAb mod #4 (antibody)
chain 1: EVQLQQSGPVLVKPGASVKMSCKASGYTFTDYYMNWVKQSHGKSLEWIGVINPYNGDTSYNQKFKGKATLTVDKSSSTAYMELNSLTSEDSAVYYCARYYGSWFAYWGQGTLVTVSSAKTTPPSVYPLAPGCGDTTGSSVTLGCLVKGYFPESVTVTWNSGSLSSSVHTFPALLQSGLYTMSSSVTVPSSTWPSQTVTCSVAHPASSTTVDKKLEPSGPISTINPCPPCKECHKCPAPNLEGGPSVFIFPPNIKDVLMISLTPKVTCVVVDVSEDDPDVQISWFVNNVEVHTAQTQTHREDYNSTIRVVSTLPIQHQDWMSGKEFKCKVNNKDLPSPIERTISKIKGLVRAPQVYILPPPAEQLSRKDVSLTCLVVGFNPGDISVEWTSNGHTEENYKDTAPVLDSDGSYFIYSKLNMKTSKWEKTDSFSCNVRHEGLKNYYLKKTISRSPGK
chain 2: DIVMTQTTLSLPVSLGDQASISCRSSQSIVHSNGNTYLEWYLQKPGQSPKLLIYKVSNRFSGVPDRFSGSGSGTDFTLKISRVEAEDLGVYYCFQGSHVPYTFGGGTKLEIKRADAAPTVSIFPPSSEQLTSGGASVVCFLNNFYPKDINVKWKIDGSERQNGVLNSWTDQDSKDSTYSMSSTLTLTKDEYERHNSYTCEATHKTSTSPIVKSFNRNEC
In the experiment with mouse CTLA-4 protein, B2 registered an IC50 of 0.0367 µg/mL. This IC50 and that of the molecule before are within 1.5-fold of each other.

B3: 9D9 DMAb mod #2 (antibody)
chain 1: EAKLQESGPVLVKPGASVKMSCKASGYTFTDYYMNWVKQSHGKSLEWIGVINPYNGDTSYNQKFKGKATLTVDKSSSTAYMELNSLTSEDSAVYYCARYYGSWFAYWGQGTLVTVSSAKTTPPSVYPLAPGCGDTTGSSVTLGCLVKGYFPESVTVTWNSGSLSSSVHTFPALLQSGLYTMSSSVTVPSSTWPSQTVTCSVAHPASSTTVDKKLEPSGPISTINPCPPCKECHKCPAPNLEGGPSVFIFPPNIKDVLMISLTPKVTCVVVDVSEDDPDVQISWFVNNVEVHTAQTQTHREDYNSTIRVVSTLPIQHQDWMSGKEFKCKVNNKDLPSPIERTISKIKGLVRAPQVYILPPPAEQLSRKDVSLTCLVVGFNPGDISVEWTSNGHTEENYKDTAPVLDSDGSYFIYSKLNMKTSKWEKTDSFSCNVRHEGLKNYYLKKTISRSPGK
chain 2: DIVMTQTTLSLPVSLGDQASISCRSSQSIVHSNGNTYLEWYLQKPGQSPKLLIYKVSNRFSGVPDRFSGSGSGTDFTLKISRVEAEDLGVYYCFQGSHVPYTFGGGTKLEIKRADAAPTVSIFPPSSEQLTSGGASVVCFLNNFYPKDINVKWKIDGSERQNGVLNSWTDQDSKDSTYSMSSTLTLTKDEYERHNSYTCEATHKTSTSPIVKSFNRNEC
Turning to B3, the IC50 with mouse CTLA-4 protein was determined as 0.0409 µg/mL. The IC50 values of the last two molecules are within 1.5-fold of each other.

B4: 9D9 standard (antibody)
chain 1: EAKLQESGPVLVKPGASVKMSCKASGYTFTDYYMNWVKQSHGKSLEWIGVINPYNGDTSYNQKFKGKATLTVDKSSSTAYMELNSLTSEDSAVYYCARYYGSWFAYWGQGTLITVSTAKTTPPSVYPLAPGCGDTTGSSVTLGCLVKGYFPESVTVTWNSGSLSSSVHTFPALLQSGLYTMSSSVTVPSSTWPSQTVTCSVAHPASSTTVDKKLEPSGPISTINPCPPCKECHKCPAPNLEGGPSVFIFPPNIKDVLMISLTPKVTCVVVDVSEDDPDVQISWFVNNVEVHTAQTQTHREDYNSTIRVVSTLPIQHQDWMSGKEFKCKVNNKDLPSPIERTISKIKGLVRAPQVYILPPPAEQLSRKDVSLTCLVVGFNPGDISVEWTSNGHTEENYKDTAPVLDSDGSYFIYSKLNMKTSKWEKTDSFSCNVRHEGLKNYYLKKTISRSPGK
chain 2: DIVMTQTTLSLPVSLGDQASISCRSSQSIVHSNGNTYLEWYLQKPGQSPKLLIYKVSNRFSGVPDRFSGSGSGTDFTLKISRVEAEDLGVYYCFQGSHVPYTFGGGTKLEIKRADAAPTVSIFPPSSEQLTSGGASVVCFLNNFYPKDINVKWKIDGSERQNGVLNSWTDQDSKDSTYSMSSTLTLTKDEYERHNSYTCEATHKTSTSPIVKSFNRNEC
As to B4, the 50% inhibitory concentration (IC50) with Mouse CTLA4 was determined as 0.0442 µg/mL.

B5: 9D9 DMAb mod #3 (antibody)
chain 1: EVQLQQSGPVLVKPGASVKMSCKASGYTFTDYYMNWVKQSHGKSLEWIGVINPYNGDTSYNQKFKGKATLTVDKSSSTAYMELNSLTSEDSAVYYCARYYGSWFAYWGQGTLITVSTAKTTPPSVYPLAPGCGDTTGSSVTLGCLVKGYFPESVTVTWNSGSLSSSVHTFPALLQSGLYTMSSSVTVPSSTWPSQTVTCSVAHPASSTTVDKKLEPSGPISTINPCPPCKECHKCPAPNLEGGPSVFIFPPNIKDVLMISLTPKVTCVVVDVSEDDPDVQISWFVNNVEVHTAQTQTHREDYNSTIRVVSTLPIQHQDWMSGKEFKCKVNNKDLPSPIERTISKIKGLVRAPQVYILPPPAEQLSRKDVSLTCLVVGFNPGDISVEWTSNGHTEENYKDTAPVLDSDGSYFIYSKLNMKTSKWEKTDSFSCNVRHEGLKNYYLKKTISRSPGK
chain 2: DIVMTQTTLSLPVSLGDQASISCRSSQSIVHSNGNTYLEWYLQKPGQSPKLLIYKVSNRFSGVPDRFSGSGSGTDFTLKISRVEAEDLGVYYCFQGSHVPYTFGGGTKLEIKRADAAPTVSIFPPSSEQLTSGGASVVCFLNNFYPKDINVKWKIDGSERQNGVLNSWTDQDSKDSTYSMSSTLTLTKDEYERHNSYTCEATHKTSTSPIVKSFNRNEC
As for B5, inhibition in the experiment with mouse CTLA-4 protein was half-maximal at 0.0361 µg/mL (IC50).
